Assay results taken from US9074002B2, “PTP1B inhibitors” (Cold Spring Harbor Laboratory, priority 2009, dated 2015).

T1: PTP1B under reducing condition (Homo sapiens, UniProt P18031)
T1 construct: made in house; host or cells: E. coli BL21 (pET19b)
T1 sequence (P18031 3-277 limits assumed): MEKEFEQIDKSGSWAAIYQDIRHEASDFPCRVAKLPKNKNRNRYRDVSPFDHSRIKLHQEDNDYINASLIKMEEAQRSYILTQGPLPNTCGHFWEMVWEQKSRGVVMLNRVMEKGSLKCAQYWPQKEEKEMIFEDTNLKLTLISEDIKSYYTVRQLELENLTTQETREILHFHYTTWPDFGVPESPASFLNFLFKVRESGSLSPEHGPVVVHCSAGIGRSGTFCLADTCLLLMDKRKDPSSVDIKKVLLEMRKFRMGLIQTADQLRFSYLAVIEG

T2: PTP1B-OX (Homo sapiens, UniProt P18031)
T2 construct: made in house; host or cells: E. coli BL21 (pET19b)
T2 sequence (P18031 3-277): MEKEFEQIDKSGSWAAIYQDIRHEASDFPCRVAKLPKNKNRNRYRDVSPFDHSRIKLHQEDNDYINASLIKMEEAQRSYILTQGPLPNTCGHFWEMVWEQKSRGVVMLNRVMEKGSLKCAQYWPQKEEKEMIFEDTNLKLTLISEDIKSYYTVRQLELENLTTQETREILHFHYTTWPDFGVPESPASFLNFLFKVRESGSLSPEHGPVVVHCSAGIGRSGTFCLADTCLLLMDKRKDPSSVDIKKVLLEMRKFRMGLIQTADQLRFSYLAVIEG

T3: PTP1B (reduced, active) (Homo sapiens, UniProt P18031)
T3 construct: made in house; host or cells: E. coli BL21 (pET19b)
T3 sequence (P18031 3-277 limits assumed): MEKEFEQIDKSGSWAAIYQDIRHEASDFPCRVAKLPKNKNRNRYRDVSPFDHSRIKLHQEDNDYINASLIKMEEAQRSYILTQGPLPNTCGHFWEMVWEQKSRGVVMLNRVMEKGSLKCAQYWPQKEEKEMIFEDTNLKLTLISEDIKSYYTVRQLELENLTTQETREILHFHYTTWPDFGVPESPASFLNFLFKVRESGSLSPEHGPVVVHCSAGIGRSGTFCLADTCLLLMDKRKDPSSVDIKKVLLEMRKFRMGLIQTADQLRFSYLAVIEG


Assays:
[1] = target: T1, PTP1B under reducing condition; assay: In vitro binding assay, purified recombinant PTP1B (37 kDa) and purified scFv, Ni-NTA pull down, reducing condition; conditions: with 2 mM TCEP; FIG. 9
Procedure: (§1) They established conditions in which PTP1B is reversibly oxidized by H2O2 in solution (FIG. 8). An artificial protein substrate RCML, in which tyrosine was phosphorylated with ^32P using recombinant GST-FER kinase was used in this assay to measure the phosphatase activity. Recombinant PTP (37 kDa) was incubated with increasing concentration (50 μM to 100 mM) of H2O2. A quick buffer exchange was done to remove the H2O2 and reducing agent (TCEP) was added to reactivate the enzyme.
(§2) In the in vitro binding assay, purified PTP was reversibly oxidized with […] followed by a quick buffer exchange to remove H2O2 (FIG. 8). Purified scFv was incubated in molar excess with PTP1B-OX or with PTP under reducing condition (with 2 mM TCEP) in binding buffer (20 mM HEPES, pH 7.4, 300 mM NaCl, 0.05% BSA, 0.05% Tween-20 and 10 mM imidazole) for 2 hours at 4° C. Ni-NTA agarose was added and incubated for one hour at 4° C. Protein complex bound to Ni-NTA agarose beads was pulled down and washed (three times, 5 minutes each, at 4° C.) with binding buffer containing 20 mM imidazole to reduce non-specific binding to the beads. The protein complex was eluted from the Ni-NTA agarose beads with 500 mM imidazole (in binding buffer, pH 7.4) for 15 minutes at 4° C. with gentle shaking. The complex was separated by SDS-PAGE and PTP1B was detected with anti-PTP1B antibody (FG6) and scFv was detected with anti-HA antibody [anti-HA (3F10)-HRP, Roche] by immunoblotting. Eight different scFvs (scFvs 20, 21, 24, 28, 45, 48, 57, and 105), expressed and purified from bacterial cultures were tested by this in vitro binding experiment.

PTP1B-OX [2] = target: T2, PTP1B-OX; assay: In vitro binding assay, purified recombinant PTP1B (37 kDa) and purified scFv, Ni-NTA pull down; conditions: purified proteins, scFv in molar excess, 2 hours at 4° C.; FIG. 9
Procedure: as §1, §2

PTP1B (reduced, active) = target: T3, PTP1B (reduced, active); assay: Direct effect of scFvs/antibodies on PTP1B phosphatase activity (32P-pTyr-RCML substrate); assay type: biochemical; conditions: 32P-labeled pTyr-RCML substrate, FIG. 1
Procedure: (§3) Applicant's hypothesis was that scFvs that are able to bind to and stabilize the oxidized conformation of PTP1B in solution would inhibit reactivation by reducing agent, but have no direct inhibitory effect on phosphatase activity in assays in vitro. Activity was measured using ^32P-labeled pTyr-Reduced Carboxamidomethylated and Maleylated Lysozyme as substrate. Applicant established conditions in which wild type PTP1B could be reversibly oxidized in vitro. PTP1B was inactivated following addition of H2O2. […] Applicant validated this approach further, by testing the effects of expressing one of the scFvs (scFv45) as a single chain antibody fragment “intrabody” to PTP1B, using 293T cells as the expression system. This intrabody was expressed transiently and then tested for effects on insulin signaling, focusing initially on the tyrosine phosphorylation status of the beta-subunit of the insulin receptor and insulin receptor substrate (IRS-1).
(§4) Reduced carboxamidomethylated and maleylated lysozyme (RCML) was labeled with ^32P using recombinant GST-FER kinase to stoichiometries up to 0.8 (mol ^32P incorporated/mol of protein). This ^32P-Labeled phospho-tyrosyl RCML was used as the substrate in the in-solution phosphatase assay for screening the conformation sensor scFvs. Recombinant PTP1B was reversibly oxidized and transiently inactivated with H2O2 (5× molar excess of the protein). […] Purified bacterially expressed scFvs (100× molar excess of PTP1B) were incubated with PTP after H2O2 treatment and its removal and the effect of individual scFv on stabilizing the reversibly oxidized conformation was assessed by the phosphatase assay under reducing condition.
In order to screen the isolated scFvs for those that inhibit reactivation of PTP1B-OX by reducing agent, but have no direct inhibitory effect on phosphatase activity in assays in vitro, the effect of six scFvs (scFv20, scFv34, scFv45, scFv57, scFv64 and scFv106) on PTP1B activity was determined. PTP1B activity was measured using 32P-labeled pTyr-Reduced Carboxamidomethylated and Maleylated Lysozyme as substrate (FIGS. 1 and 2). Addition of the reducing agent TCEP alone had no substantial effect in PTP1B activity was assessed.

PTP1B-OX [3] = target: T2, PTP1B-OX; assay: Inhibition of reactivation of reversibly oxidized PTP1B by reducing agent (RCML phosphatase assay); assay type: biochemical; conditions: PTP1B oxidized with H2O2, buffer exchange, TCEP added; FIG. 2
Procedure: as §3, §4
In a different experiment, conditions were established in which wild type PTP1B could be reversibly oxidized in vitro. […] Addition of the reducing agent alone had no substantial effect on PTP1B activity (FIGS. 1 and 2, “PTP1B”).

Molecule	binding to PTP1B under reducing condition in vitro [1]	binding to PTP1B-OX in vitro (PTP1B-OX [2])	direct effect on PTP1B activity (PTP1B (reduced, active))	inhibition of reactivation of PTP1B-OX by reducing agent (restoration of PTP1B activity after reversible oxidation) (PTP1B-OX [3])
scFv45: conformation-sensor scFv binding PTP1B-OX, SEQ ID NO: 26 and 78; expressed as intrabody (protein) scFv: MKKTAIAIAVALAGFATVAQAALTQPSSVSANPGGTVKITCSGSSSAYGYGWYQQKSPGSAPVTVIYNNNKRPSNIPSRFSGSKSGSTGTLTITGVQAEDEAVYFCGSEDSSTDAIFGAGTTLTVLGQSSRSSTVTLDESGGGLQAPGGALSLVCKASGFTFSSYDMGWIRQAPGKGLEYVAGITDNGRYASYGSAVDGRATISRDNGQSSVRLQLNNLRAEDTGTYYCARDDGSGWTGNSIDAWGHGTEVIVSSTSGQAGQHHHHHHGAYPYDVPDYAS	not to PTP under reducing condition	specific binding to PTP1B-OX	no direct inhibition of PTP activity	substantial inhibition of the restoration of PTP1B activity
scFv57: scFv binding PTP1B-OX, SEQ ID NO: 27 and 90 (protein) scFv: MKKTAIAIAVALAGFATVAQAALTQPSSVSANPGAFNKITCSGSSSAYGYGWNQQKSPGSAPVTVIYNNNKRPSNIPSRFSGSKSGSTGTLTITGDQDEDEDFYFCGSEYSSTDAIFGAGTTLTVLGQSSRSSTVTLDESGGGLQAPGGALSLVCKASGFTFSSYDMGWIPQAPGKGLEYVAGITDNGIYASYGSAVDGRATISRDNRQSSVKLQLNNLKADDTGTYYCARDDGSGWTGNSIDAWGHGTEVIVSSTSGQAGQHHHHHHGAYPYDVPDYAS	not to PTP under reducing condition	specific binding to PTP1B-OX	no direct inhibition of PTP activity	substantial inhibition of the restoration of PTP1B activity
